Measurements as given in patent US20220031806A1 (Five Prime, published 2022).

Target: T1, mouse PD-L1 on mouse splenocytes (mouse, UniProt Q9EP73 19-290)
T1 construct: whole, on cells
Assay: flow cytometry receptor occupancy on BALB/c and C57Bl/6 splenocytes, free PD-L1 by competing Ab clone
Protocol: FIGS. 1A and 1B: Mouse splenocytes were evaluated for mCD80-Fc engagement and receptor occupancy. (A) Splenic immune cell subsets were identified as CD11b+ DCs (B220-Thy1.2−CD49b−CD11c+CD11b+), CD11b− DCs (B220− Thy1.2−CD49b-CD11c+CD11b−), Macrophages (B220−Thy1.2−CD49b−CD11c−CD11b+), NK cells (B220− Thy1.2−CD49b+), and T cells (CD3+CD4+ or CD3+CD8+) by flow cytometry. Representative flow cytometry plots depict the gating strategy. (B) Increasing concentrations of mCD80-Fc were incubated with mouse splenocytes (BALB/c strain top row; C57Bl/6 strain bottom row), and mCD80-Fc engagement was measured both via biotin-labeled anti-mIgG followed by streptavidin Alexa488 (“bound drug”) and by detection of CD80 ligands with competing Ab clones (“free” PD-L1 or CD28) enumerated as Antibody Binding Capacity (ABC) values. CTLA-4 was not detected on any immune cell evaluated (data not shown). L.D., limit of detection of ABC. Graphs depict mean±SD of n=3 animals/strain measured in technical duplicates. […]
Mouse splenocytes were prepared from adult BALB/c and […] mice by methods known to those of ordinary skill in the art. […] Data from the samples was acquired on a BD LSRII or BD LSRFortessa and analyzed using FlowJo, Excel, and Graphpad Prism.

T1 sequence (Q9EP73 19-290): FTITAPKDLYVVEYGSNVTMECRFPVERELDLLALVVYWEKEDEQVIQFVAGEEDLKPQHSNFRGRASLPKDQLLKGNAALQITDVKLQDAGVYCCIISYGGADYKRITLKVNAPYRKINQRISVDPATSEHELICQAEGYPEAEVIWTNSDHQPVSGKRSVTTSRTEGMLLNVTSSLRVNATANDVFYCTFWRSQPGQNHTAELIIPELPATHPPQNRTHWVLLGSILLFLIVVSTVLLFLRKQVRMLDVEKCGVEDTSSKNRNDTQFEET

binding result: no binding (tested: 0-1000 µg/mL)
B1: mouse surrogate fusion protein comprising the extracellular domain (ECD) of murine CD80 linked to the Fc domain of mouse IgG2a wild type (mCD80-Fc) (Fc fusion)
chain: VDEQLSKSVKDKVLLPCRYNSPHEDESEDRIYWQKHDKVVLSVIAGKLKVWPEYKNRTLYDNTTYSLIILGLVLSDRGTYSCVVQKKERGTYEVKHLALVKLSIKADFSTPNITESGNPSADTKRITCFASGGFPKPRFSWLENGRELPGINTTISQDPESELYTISSQLDFNTTRNHTIKCLIKYGDAHVSEDFTWEKPPEDPPDSKNEPRGPTIKPCPPCKCPAPNLLGGPSVFIFPPKIKDVLMISLSPIVTCVVVDVSEDDPDVQISWFVNNVEVHTAQTQTHREDYNSTLRVVSALPIQHQDWMSGKEFKCKVNNKDLPAPIERTISKPKGSVRAPQVYVLPPPEEEMTKKQVTLTCMVTDFMPEDIYVEWTNNGKTELNYKNTEPVLDSDGSYFMYSKLRVEKKNWVERNSYSCSVVHEGLHNHHTTKSFSRTPGK
notes: also called Murine CD80 ECD Fusion Molecules; Mouse CD80 ECD mouse Fc IgG2a
